Laboratory results: article PMC11757143, “Generation and characterization of OX40-ligand fusion protein that agonizes OX40 on T-Lymphocytes” (Frontiers in Immunology, 2024)
Several values for one entry are separate records, joined by “and”; a condition that tells them apart may be missing. Equal entries are not always repeated.

Molecular target: the molecule itself
Experiment: non-reducing SDS-PAGE and immunoblot; recombinant OX40L proteins in Laemmli sample buffer, non-heated/non-reducing, SDS-PAGE, immunoblot with anti-PA tag antibody; oligomers judged by molecular weight

B1: Fc-MBL-OX40L (Fc fusion)
chain: not shown
notes: extracellular TNF homology domain (THD) of mouse OX40L (Tnfsf4), 51Ser-198Leu; Order N to C: Fc, PA, MBL, OX40L; Seen as dimer, hexamer and higher-order multimers on non-reducing gels; also called OX40L-fusion protein (B); not shown: Fc (human IgG1: hinge, CH2, CH3), N-terminal, kept
  stoichiometry N: 2 and 6

B2: MBL-OX40L (ligand)
chain: not shown
notes: extracellular TNF homology domain (THD) of mouse OX40L (Tnfsf4), 51Ser-198Leu; Seen as dimer, trimer and hexamer on non-reducing gels; also called OX40L-fusion protein (A)
  stoichiometry N: 2 and 3 and 6

B3: MBL-scOX40L (ligand)
chain: not shown
notes: extracellular TNF homology domain (THD) of mouse OX40L (Tnfsf4), 51Ser-198Leu; first of three copies; peptide linker; second of three copies; third of three copies; Order N to C: PA, MBL, OX40L, Linker, OX40L, Linker, OX40L, His6; Seen as dimer, trimer and multimers on non-reducing gels; also called OX40L-fusion protein (E); source: Anti PA tag Antibody Beads; not shown: His6, C-terminal, kept
  stoichiometry N: 2 and 3
